Data from the supplement of paper PMC9170038.

Tested on: MS2 coat protein
Experiment: apparent KD of MS2 coat protein; designed switch direction (-1 OFF switch, 1 ON switch): 1; higher = weaker reporter binding
Procedure, shortened: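 An oligonucleotide input, 200 uM small-molecule ligand, or no input was present during titration of SNAP-549-labelled MS2 coat protein, which was doubled from 0.7 or 1.5 nM to 3 µM. Designed RNA switches had been transcribed on Illumina chips by stalled E. coli RNA polymerase. Apparent KD per design is the median over clusters of curves fitted to normalised cluster fluorescence.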

[1] = input ligand: microRNA oligo, concentration not stated
[2] = Eterna round: R95, input ligand: FMN 200 uM
[3] = Eterna round: R95, input ligand: microRNA oligo, concentration not stated
[4] = Eterna round: R95, input ligand: none

Row | Sequence | apparent KD of MS2 coat protein (input ligand: FMN 200 uM) [nM] | apparent KD of MS2 coat protein [1] [nM] | apparent KD of MS2 coat protein (input ligand: none) [nM] | apparent KD of MS2 coat protein [2] [nM] | apparent KD of MS2 coat protein [3] [nM] | apparent KD of MS2 coat protein [4] [nM]
1 | GUUACAUGAGGAUCACCCAUGUAUGUGUGGGAGUAAGUGUCUUAGGAUAUCUGAUAUUUAAUUUAAGAGAAGGAAGAUUGUUGU [JMF's solution 29] (Eterna round: R96, puzzle: Same State NG 3) | 119 | 69.6 | 85.5 |  |  | 
2 | ACGCCCUCAGUAGGAUAUGGGAAAGGAAGUGUACCAGAAGGACUGGUUGAACAUGAGGAUCACCCAUGUUCAACGACAGGGCGA [PowerStrip SSNG 1.25] (Eterna round: R96, puzzle: Same State NG 1) | 18.9 | 14 | 22.8 |  |  | 
3 | GUAGCAUACCGAGGAUAUUCAUAUUACAUGAGGAUCACCCAUGUAAGGCCACAUUAGUGGCCUUGGGAGAAGGCGGAAUGCUAC [Xeonanis - 20 Mod42] (Eterna round: R96, puzzle: Same State NG 2) | 18.3 | 30 | 180 |  |  | 
4 | CACAUGAGGAUCACCCAUGUGAGGCGGCAAUAAAGCCGCGCACAGGAUAUAGCGCUAUGAAUGCGCUAGAAGGGUGAUUAGAAC [Reines] (Eterna round: R96, puzzle: Same State NG 3) | 240 | 59.9 | 36.5 |  |  | 
5 | GAGCUCGUGUGAGGAUAUGCCGCCGUUUCGGCUGCAGAAGGUGCUACGUUACAUGAGGAUCACCCAUGUCUCUGUUGUUUCGUG [salish99_SSNG1_r04_958] (Eterna round: R96, puzzle: Same State NG 1) | 23.5 | 20.4 | 21.9 |  |  | 
6 | UAGAGAGGAAGCGAGGAUAUCGUGUUAGGUACAUGAGGAUCACCCAUGUUUUAAGUAGAGAUAGGCGAGAAGGCGCAGGAGAAGA [JR_SS2_Sub089] (puzzle: Same State 2) |  |  |  | 38 | 20.1 | 28
7 | UAAAUACAUGAGGAUCACCCAUGUCAAAAGACAUGAGGAUAUGUACAGACUUCGGUCUGUACAGAAGGCAUGAAUA [salish99_ss1_r3_096] (Eterna round: R96, puzzle: Same State 1) |  | 417 |  |  |  | 
8 | UAAGGACAUGAGGAUCACCCAUGUGCUUCAUAUGGAGAAUCUCAGGAUAUCCUGAGGAUCACCCAGGAGAAGGGAGAUCCGAGG (Eterna round: R96, puzzle: Same State NG 3) | 288 | 191 | 225 |  |  | 
9 | GCUGCAAUAAACGCCUACAUGAGGAUCACCCAUGUAUGUAGGCAGGAUAUCGUAUGCAAAGCAUACGAGAAGGGCUGUAGUAGC [Mat - Same State NG 3 - JL Mod - D39] (Eterna round: R96, puzzle: Same State NG 3) | 65.3 | 97.3 | 112 |  |  | 
10 | AGGUUCCUGCUAGGAUAUCUAGGAUAUGGACGAGGAUUACCCGAGCAGGAUUACCGCACCAGAGGAGAGAAGGAGCAACAAGAG [pwkr ssNG2 2F5 2FMN.14] (Eterna round: R96, puzzle: Same State NG 2) | 1740 | 370 | 160 |  |  | 
11 | GUUACAUGAGGAUCACCCAUGUAUGUGUGGGAGUAAGUGUCUUAGGAUAUCUAGUAUUUAAUUGAAGAGAAGGAAGAUUGUUGU [JMF's solution 67] (Eterna round: R96, puzzle: Same State NG 3) | 109 | 87.2 | 108 |  |  | 
12 | AGUCCAGCCUGAGCUGGACAAAAGCGUGUACAUGAGGAUCACCCAUGUCAUGUACAAGCUUUUUGCUCGUCUUAAAA [Zipper 46 - 7] (puzzle: Sensor for hsa-mir-208a) |  |  |  | 63.5 | 19.9 | 69.8
13 | UGCCUGAGUCGAGGAUAUUAUGGAUCCUCUAAUACAUGAGGAUCACCCAUGUAAUUAAUUAUACAUGAGAAGGCGACUCAGGCU [SSNG2/12-A1] (Eterna round: R96, puzzle: Same State NG 2) | 304 | 22.3 | 46.5 |  |  | 
14 | UUCUCCUUUUUUUACAUGAGGAUCACCCAUGUUUUUCUUACGUAGGAUAUCGUUGUUUUUUUUUACGAGAAGGACGUAGUAAGU [JR_SSND3_Sub060] (Eterna round: R96, puzzle: Same State NG 3) | 31.5 | 25.8 | 36.2 |  |  | 
15 | GGUCCAGCCUGAGCUGGACUAUAGUAUGUACAUGAGGAUCACCCAUGUCAUGUAUAAGUAUGUUGUUUGUCUUGAAA [Sensorship 4 - Jieux - Sensor for hsa-mir-208a] (puzzle: Sensor for hsa-mir-208a) |  |  |  | 23.6 | 20.1 | 24.2
